{"source": "paper PMC5095350", "about": "“Engineered AAA+ proteases reveal principles of proteolysis at the mitochondrial inner membrane” (Nature Communications, 2016)", "molecules": {"B1": {"name": "β-casein (natural protein)", "chain": "RELEELNVPGEIVESLSSSEESITRINKKIEKFQSEEQQQTEDELQDKIHPFAQTQSLVYPFPGPIPNSLPQNIPPLTQTPVVVPPFLQPEVMGVSKVKEAMAPKHKEMPFPKYPVEPFTESQSLTLTDVENLHLPLPLLQSWMHQPHQPLPPTVMFPPQSVLSLSQSKVLPVPQKAVPYPQRDMPIQAFLLYQEPVLGPVRGPFPIIV"}, "B2": {"name": "hexYME1L (enzyme, human)", "chain": "GELKAIAQELKAIAKELKAIAWELKAIAQGAGGSGSYFQSNARFRTTTGLDSAVDPVQMKNVTFEHVKGVEEAKQELQEVVEFLKNPQKFTILGGKLPKGILLVGPPGTGKTLLARAVAGEADVPFYYASGSEFDEMFVGVGASRIRNLFREAKANAPCVIFIDELDSVGGKRIESPMHPYSRQTINQLLAEMDGFKPNEGVIIIGATNFPEALDNALIRPGRFDMQVTVPRPDVKGRTEILKWYLNKIKFDQSVDPEIIARGTVGFSGAELENLVNQAALKAAVDGKEMVTMKELEFSKDKILMGPERRSVEIDNKNKTITAYHESGHAIIAYYTKDAMPINKATIMPRGPTLGHVSLLPENDRWNETRAQLLAQMDVSMGGRVAEELIFGTDHITTGASSDFDNATKIAKRMVTKFGMSEKLGVMTYSDTGKLSPETQSAIEQEIRILLRDSYERAKHILKTHAKEHKNLAEALLTYETLDAKEIQIVLEGKKLEVR", "notes": "cc-hex, de novo designed peptide that forms a hexameric coiled coil; replaces the N-terminal domain and transmembrane span of YME1L; 10-residue linker between cc-hex and YME1L-AP; human YME1L isoform 1, AAA+ ATPase domain and M41 protease domain, residues 317-773; also called hexYME1L-AP; hexameric YME1L; source: E. coli BL21 (DE3), purified (glutathione agarose, TEV cleavage, Ni-NTA, SEC); not …"}, "B3": {"name": "hexYME1L (Homo sapiens) (protein)", "chain": "RFRTTTGLDSAVDPVQMKNVTFEHVKGVEEAKQELQEVVEFLKNPQKFTILGGKLPKGILLVGPPGTGKTLLARAVAGEADVPFYYASGSEFDEMFVGVGASRIRNLFREAKANAPCVIFIDELDSVGGKRIESPMHPYSRQTINQLLAEMDGFKPNEGVIIIGATNFPEALDNALIRPGRFDMQVTVPRPDVKGRTEILKWYLNKIKFDQSVDPEIIARGTVGFSGAELENLVNQAALKAAVDGKEMVTMKELEFSKDKILMGPERRSVEIDNKNKTITAYHESGHAIIAYYTKDAMPINKATIMPRGPTLGHVSLLPENDRWNETRAQLLAQMDVSMGGRVAEELIFGTDHITTGASSDFDNATKIAKRMVTKFGMSEKLGVMTYSDTGKLSPETQSAIEQEIRILLRDSYERAKHILKTHAKEHKNLAEALLTYETLDAKEIQIVLEGKKLEVR"}}, "key": {"[1]": {"biological_target": "T1, hexYME1L (human) (UniProt Q96TA2)", "T1 sequence": "B2 chain"}, "[2]": {"biological_target": "T1, hexYME1L (human)", "remark": "listed apart in the source"}, "[3]": {"biological_target": "T1, hexYME1L (human)", "remark": "listed apart in the source"}, "[4]": {"biological_target": "the molecule itself", "experiment": "SEC; analytical SEC, Superose 6 Increase 10/300 GL; 1 mg of protein in 200 μl; 50 mM Tris-HCl (pH 8.0), 100 mM NaCl, 0.5 mM TCEP; hexYME1L also with 5 mM EDTA or with ATPγS and MgCl2 (no change in migration)"}, "[5]": {"substrate": "Nc1ncnc2c1ncn2[C@@H]1O[C@H](COP(=O)(O)OP(=O)(O)OP(=O)(O)O)[C@@H](O)[C@H]1O", "experiment": "purified protein", "settings": "Hill form of Michaelis-Menten equation, MgCl2 5 mM, pH 8.0, 37 °C, no protein substrate"}}}
{"molecule": "cp7-^SFGFP-sul20C", "values": [{"measurement": "KM of ATP-dependent degradation by hexYME1L (1 μM), loss of GFP fluorescence, 37 °C", "setting": "[1]", "result": 15.2, "unit": "µM"}]}
{"molecule": "I27 domain of human titin (domain or fragment)", "values": [{"measurement": "stimulation of the ATPase rate of hexYME1L (0.25 μM) by 20 μM substrate (not significant)", "setting": "[2]", "result": 6, "unit": "%"}]}
{"molecule": "cp7-^SFGFP-ssrA", "values": [{"measurement": "KM of ATP-dependent degradation by hexYME1L (1 μM), loss of GFP fluorescence, 37 °C", "setting": "[1]", "result": 12, "unit": "µM"}]}
{"molecule": "carboxymethylated I27 domain of human titin (domain or fragment)", "values": [{"measurement": "stimulation of the ATPase rate of hexYME1L (0.25 μM) by 20 μM substrate (not significant)", "setting": "[2]", "result": 14, "unit": "%"}]}
{"molecule": "B1", "values": [{"measurement": "initial rate of ATP-dependent degradation of β-casein (20 μM) by hexYME1L (1 μM), SDS-PAGE (β-casein molecules min^−1 enz6^−1)", "setting": "[3]", "result": 0.49}]}
{"molecule": "B2", "values": [{"measurement": "stoichiometry N", "setting": "[4]", "result": "~6"}]}
{"molecule": "B3", "values": [{"measurement": "K0.5", "setting": "[5]", "result": 1.4, "unit": "mM"}]}
